Assay results taken from the supplement of paper PMC10567573.

B1: LARP4 (parent)
chain: WTVANMEEIKKLTTDPDLILEVLR
B2: APBB1IP (parent)
chain: PPEPLSQVSMWDQRWQDHQPLLPI

Variants of: B1
Experiment: protein stability index of a GFP-peptide fusion (GPS, HEK-293T) (PSI 1-6); higher = more stable
Conditions: c terminus: a fixed tail appended
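Note: lentivirally expressed fusions sorted by FACS into six bins by GFP to DsRed ratio, PSI derived from sequencing read proportions per bin multiplied by bin number.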

Protein stability index of substitutions, site by site:
K10: R 2.52 | G 1.99 | E 2.51 | C 2.02 | Y 2.03 | I 1.54 | V 2.07 | T 1.71 | N 2.13 | F 1.93 | A 2.12 | S 2.07 | M 2.56 | L 2.68 | P 2 | W 2.68 | H 1.84 | D 2.49 | Q 2.88
K11: H 3.42 | C 2.33 | Y 3.77 | T 2.95 | V 2.29 | S 2.8 | N 2.81 | E 3.99 | F 2.85 | W 2.68 | L 2.13 | R 2.52 | A 1.7 | G 2.22 | I 2.02 | M 1.81 | D 3.96 | P 2.46 | Q 2.58
A4: T 1.97 | W 1.21 | C 1.92 | N 2.59 | G 2.06 | H 1.93 | Y 1.5 | Q 2.61 | L 1.9 | E 2.3 | V 1.43 | F 1.69 | M 1.5 | R 2.45 | S 1.9 | P 2.05 | D 3.25 | K 2.6
T2: S 2.58 | E 2.8 | Q 1.95 | N 2 | R 2.59 | V 1.7 | M 1.48 | P 3.13 | Y 1.05 | C 2.02 | I 1.14 | L 2.08 | F 1.94 | D 2.12 | W 2.11 | K 1.87 | A 1.42 | H 2.67 | G 2.28
N5: E 2.47 | Y 2.38 | L 2.55 | Q 2.39 | T 1.65 | V 1.85 | C 2.04 | K 2.05 | F 1.98 | P 1.76 | G 1.64 | A 1.29 | D 2.79 | W 1.76 | H 1.99 | S 1.66 | R 1.16
E8: R 2.37 | I 1.72 | Y 2.73 | P 1.82 | H 2.89 | G 1.56 | D 2.03 | F 1.7 | N 2.03 | Q 1.68 | T 1.7 | C 2.25 | V 1.4 | S 1.58 | A 1.5 | M 1.47 | W 1.36 | L 3.14
L12: M 2.06 | W 2.46 | I 2.23 | V 2.9 | C 3.11 | H 3.11 | A 2.17 | P 2.26 | F 2.97 | E 3.74 | S 2.97 | D 3.37 | N 3.08 | Y 2.62 | Q 3.09 | T 2.22 | K 2.62 | G 2.6 | R 2.34
T13: C 1.88 | A 2.24 | D 2.56
E7: F 2.55 | Q 2.28 | S 1.7 | I 1.94 | K 1.88 | M 1.2 | Y 2.18 | H 1.59 | V 1.93 | N 2.56 | G 2.4 | T 1.91 | C 1.58 | R 1.44 | D 2.23 | A 1.9
I9: P 2.49 | D 2.76 | R 2.5 | C 2.27 | V 2.72 | H 2.65 | F 1.87 | E 2.75 | Y 2.31 | M 2.3 | W 2.21 | S 1.85 | A 2.38 | G 2.43 | K 2.5 | L 2.16 | N 1.93 | T 1.71 | Q 2.14
W1: M 2.88 | K 2.26 | D 3.04 | S 2.33 | N 2.49 | Q 2.91 | F 2.74 | T 2.32 | H 2.55 | L 2.14 | C 1.88 | Y 2.01 | R 2.45 | G 2.63 | I 2.25 | A 1.9 | V 2.89 | E 2.75 | P 2.71
V3: I 2.37 | A 3.11 | Q 2.62 | E 3.01 | R 1.24 | K 2.19 | H 2.5 | M 2.29 | S 2.21 | D 3.05 | N 2.24 | P 1.92 | L 2.41 | T 2.18 | F 2.32 | Y 1.96 | C 2.5
M6: A 1.33 | L 2.13 | G 1.59 | V 1.73 | R 2.47 | K 1.89 | P 2.03 | F 1.69 | Y 1.73 | N 2.67 | D 2.79 | H 1.79 | I 1.63 | W 1.89 | Q 2.25 | S 2.57 | E 2.67 | C 2.6

Variants of: B2
Experiment: as above
Conditions: c terminus: a fixed tail appended

Protein stability index, by site and new letter:
D17: Q 2.57 | A 2.5 | H 2.44 | S 2.53 | K 2.78 | N 3.15 | L 3.26 | E 2.97
I24: C 2.69 | W 2.04 | K 3.92
Q19: N 3 | V 2.33 | F 2.89
E3: Y 2.27 | I 2.48 | F 2.4
Q7: C 3.13 | R 2.93 | T 3.3
P4: W 2.3 | Y 2.87 | C 2.51
H18: S 3.11 | T 3.44 | D 4.05 | A 2.79
S6: N 2.93 | E 3.15 | Q 3.28
L22: V 3.2 | H 3.29 | T 3.74 | K 4.04
R14: M 2.68 | S 3.84 | E 3.74 | H 3.19 | Y 3.12 | T 3.39 | N 3.86
S9: P 3.16 | E 3.56 | A 3.4 | Q 3.28
Q13: D 3.51 | E 3.56 | C 2.56 | A 2.54 | L 2.16 | M 3.46 | S 3.29 | K 2.76
W15: R 3.41 | T 4.39 | H 4.17
D12: H 2.6 | M 2.33 | S 2.73 | Q 2.11 | W 1.85
V8: P 3.12 | C 2.22 | F 2.51 | Q 2.9 | K 3.25 | I 3.25 | G 3.38 | L 2.77
P23: W 1.36 | E 3.03 | S 2.05 | C 3.48 | T 2.77
Q16: T 2.46 | E 2.92 | F 2.83 | P 3.84 | S 2.61
P1: C 2.34 | Q 2.89 | K 2.73
P20: V 2.91 | R 2.8 | D 3.33 | W 2.33 | K 2.05 | M 3.03
P2: E 3.02 | R 2.5 | T 2.69 | W 2.07 | V 3.11
W11: D 4.4 | L 3.77 | F 3.55
M10: P 3.87 | S 3.35 | Y 2.51 | C 3.52 | H 3.42 | A 3.52 | L 3.16 | N 3.54
L21: S 3.26 | G 3.76 | M 3.4 | V 3.28
L5: V 2.99 | H 3.54 | R 3.62 | D 3.58 | C 3.75
